Laboratory results from publication PMC2115046.
Where “and” joins values, the source holds several entries; their conditions need not be identical. Equal entries are not always repeated. Where two headings read alike, the source gives them in different places.

Legend:
[1] = target: G-actin, rabbit skeletal muscle (rabbit) (UniProt P68135); experiment: dissociation kinetics by etheno-ATP fluorescence decay
[2] = target: G-actin, rabbit skeletal muscle (rabbit) (UniProt P68135)
[3] = target: G-actin, rabbit skeletal muscle (rabbit) (UniProt P68135); experiment: other fluorescence titration
[4] = target: G-actin, rabbit skeletal muscle (rabbit) (UniProt P68135); experiment: association kinetics by inactivation of etheno-ATP exchange

Chain of 14NT, 14-kD fragment of human plasma gelsolin containing the NH2 terminal (domain or fragment) (P06396 28-782): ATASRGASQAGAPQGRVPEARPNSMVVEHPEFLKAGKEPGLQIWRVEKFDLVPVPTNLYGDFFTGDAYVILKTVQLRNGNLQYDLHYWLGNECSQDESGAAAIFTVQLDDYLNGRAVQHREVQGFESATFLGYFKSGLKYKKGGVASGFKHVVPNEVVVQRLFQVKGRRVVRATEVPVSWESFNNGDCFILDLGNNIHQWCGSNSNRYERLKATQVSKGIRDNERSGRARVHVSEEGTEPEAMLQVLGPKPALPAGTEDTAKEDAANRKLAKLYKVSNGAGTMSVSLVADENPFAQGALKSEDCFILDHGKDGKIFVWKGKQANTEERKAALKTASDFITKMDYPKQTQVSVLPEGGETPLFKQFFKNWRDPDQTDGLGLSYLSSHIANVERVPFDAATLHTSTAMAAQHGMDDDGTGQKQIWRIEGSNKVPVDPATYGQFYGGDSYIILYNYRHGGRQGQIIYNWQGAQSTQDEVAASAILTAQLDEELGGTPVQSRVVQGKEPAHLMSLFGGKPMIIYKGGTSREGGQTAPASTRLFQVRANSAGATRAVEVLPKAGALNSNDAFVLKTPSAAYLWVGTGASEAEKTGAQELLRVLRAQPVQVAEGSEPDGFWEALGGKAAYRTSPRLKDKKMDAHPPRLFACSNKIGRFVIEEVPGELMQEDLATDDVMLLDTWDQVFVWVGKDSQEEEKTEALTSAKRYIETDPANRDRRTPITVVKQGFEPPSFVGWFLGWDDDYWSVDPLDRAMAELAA
Chain of 41CT, 41-kD COOH-terminal half of human plasma gelsolin (domain or fragment) (P06396 28-782): as above

koff [1] [s⁻¹] | t1/2 of the complex [1] [h] | Ka [2] [M⁻¹] | Kd [2] [nM] | half-maximal saturation [3] | koff [3] [s⁻¹] | stoichiometry N [3] | kon [4] [M⁻¹ s⁻¹] | Kd [3] [nM] | Substance
1.35e-06 | 143 | 2.2e+11 | 0.004 to 0.005 | 1 nM and 2 nM | 0.0003 | 1 | 299000 | – | 14NT, 14-kD fragment of human plasma gelsolin containing the NH2 terminal (domain or fragment)
– | – | – | – | – | – | 1 | – | 25 | 41CT, 41-kD COOH-terminal half of human plasma gelsolin (domain or fragment)
